Results taken from the supplement of paper PMC10724198.
± gives the standard deviation of the averaged measurements.

What was measured:
Saccharomyces cerevisiae [1] = assay: protein stability index of tFT-peptide fusion (C-terminal peptide) (PSI (0-1 scale)); higher = more stable (slower turnover)
Procedure: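 MPS profiling in S. cerevisiae of the tFT-X12 degron library: putative degron peptides plus stable controls, 12 aa, fused to the C-terminus of a sfGFP-mCherry timer. Cells are FACS-sorted into 8 mCherry/sfGFP bins and deep-sequenced. PSI runs from 0 (unstable) to 1 (stable). Backgrounds are wild type, das1Δ and doa10Δ at 30 °C, and wild type, das1Δ, cdc34-1 and cdc53-1 at 37 °C; 2-3 technical replicates each.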

Saccharomyces cerevisiae [2] = assay: as above; conditions: genetic background: wild type; temperature: 30 C
[3] = genetic background: cdc34-1, temperature: 37 C
[4] = genetic background: cdc53-1, temperature: 37 C
[5] = genetic background: das1 deletion, temperature: 30 C
[6] = genetic background: das1 deletion, temperature: 37 C
[7] = genetic background: doa10 deletion, temperature: 30 C
[8] = genetic background: wild type, temperature: 30 C
[9] = genetic background: wild type, temperature: 37 C
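Also: PSI is a weighted mean of sequencing reads over stability bins, variants kept only with over 10 reads, mCherry proximal and sfGFP distal, peptide attached via GGGS linker.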

Row | Sequence | protein stability index (Saccharomyces cerevisiae [1]; [3]) | protein stability index (Saccharomyces cerevisiae [1]; [4]) | protein stability index (Saccharomyces cerevisiae [1]; [5]) | protein stability index (Saccharomyces cerevisiae [1]; [6]) | protein stability index (Saccharomyces cerevisiae [1]; [7]) | protein stability index (Saccharomyces cerevisiae [1]; [8]) | protein stability index (Saccharomyces cerevisiae [1]; [9]) | protein stability index (Saccharomyces cerevisiae [2])
1 | LCSCAVVICCSL | 0.445 ± 0.0054 | 0.4359 ± 0.0021 | 0.299 ± 0.031 | 0.4631 ± 0.0044 | 0.274 ± 0.0047 | 0.309 ± 0.0072 | 0.441 ± 0.019 | 0.377 ± 0.04
2 | SRGRVLRLLLLV | 0.303 ± 0.0055 | 0.428 ± 0.013 | 0.393 ± 0.025 | 0.524 ± 0.0093 | 0.0727 ± 0.011 | 0.0574 ± 0.026 | 0.0678 ± 0.018 | 0.124 ± 0.0028
3 | CICAFCSLNLLC | 0.695 ± 0.01 | 0.774 ± 0.016 | 0.61 ± 0.012 | 0.765 ± 0.011 | 0.289 ± 0.0064 | 0.324 ± 0.023 | 0.607 ± 0.013 | 0.435 ± 0.011
4 | LTFRFGVNPYVF | 0.631 ± 0.034 | 0.748 ± 0.013 | 0.634 ± 0.019 | 0.752 ± 0.024 | 0.132 ± 0.0056 | 0.14 ± 0.023 | 0.283 ± 0.015 | 0.323 ± 0.011
5 | VCLWAIHLSGCW | 0.546 ± 0.046 | 0.601 ± 0.048 | 0.46 ± 0.022 | 0.58776 ± 0.00056 | 0.453 ± 0.021 | 0.449 ± 0.03 | 0.584 ± 0.014 | 0.475 ± 0.035
6 | LAVFSSPELSFP | 0.727 ± 0.012 | 0.788 ± 0.015 | 0.6631 ± 0.0019 | 0.761 ± 0.013 | 0.66 ± 0.034 | 0.676 ± 0.0088 | 0.777 ± 0.0036 | 0.756 ± 0.024
7 | SLALLFSFLLFL | 0.504 ± 0.041 | 0.404 ± 0.028 | 0.448 ± 0.021 | 0.536 ± 0.0096 | 0.605 ± 0.056 | 0.461 ± 0.015 | 0.54 ± 0.042 | 0.438 ± 0.013
8 | LSRFRYFVLTSL | 0.531 ± 0.026 | 0.6913 ± 0.0028 | 0.608 ± 0.018 | 0.698 ± 0.033 | 0.146 ± 0.015 | 0.171 ± 0.019 | 0.263 ± 0.037 | 0.261 ± 0.041
9 | AFVALCACVIFV | 0.175 ± 0.015 | 0.249 ± 0.026 | 0.215 ± 0.039 | 0.362 ± 0.005 | 0.178 ± 0.016 | 0.202 ± 0.026 | 0.302 ± 0.0078 | 0.302 ± 0.025
10 | SFLLGCCWLVLC | 0.222 ± 0.04 | 0.309 ± 0.0045 | 0.27 ± 0.03 | 0.3934 ± 0.0034 | 0.1353 ± 0.00058 | 0.116 ± 0.0073 | 0.127 ± 0.0028 | 0.155 ± 0.0099
11 | ALLMVCFGFSLV | 0.445 ± 0.022 | 0.5162 ± 0.0013 | 0.372 ± 0.032 | 0.527 ± 0.0098 | 0.335 ± 0.009 | 0.367 ± 0.02 | 0.508 ± 0.0078 | 0.422 ± 0.01
12 | LLASFWKFIVNI | 0.613 ± 0.036 | 0.722 ± 0.015 | 0.641 ± 0.058 | 0.7 ± 0.073 | 0.139 ± 0.012 | 0.166 ± 0.012 | 0.166 ± 0.011 | 0.23 ± 0.016
13 | GVVRKLCHWVVA | 0.476 ± 0.0049 | 0.516 ± 0.031 | 0.362 ± 0.027 | 0.525 ± 0.0015 | 0.286 ± 0.0046 | 0.322 ± 0.016 | 0.469 ± 0.013 | 0.426 ± 0.04
14 | NVALHPGVPRKC | 0.656 ± 0.038 | 0.715 ± 0.018 | 0.677 ± 0.026 | 0.75 ± 0.031 | 0.664 ± 0.018 | 0.649 ± 0.019 | 0.702 ± 0.019 | 0.341 ± 0.036
15 | CVILVSFFCYSA | 0.142 ± 0.021 | 0.221 ± 0.014 | 0.142 ± 0.059 | 0.322 ± 0.0071 | 0.119 ± 0.0041 | 0.132 ± 0.059 | 0.284 ± 0.0073 | 0.2201 ± 0.00089
16 | ALSRFFSVFLLV | 0.592 ± 0.013 | 0.671 ± 0.009 | 0.55 ± 0.019 | 0.6766 ± 0.0044 | 0.26 ± 0.012 | 0.266 ± 0.03 | 0.454 ± 0.032 | 0.3814 ± 0.00064
17 | PHGLKPHCPTPS | 0.685 ± 0.026 | 0.745 ± 0.021 | 0.654 ± 0.016 | 0.7368 ± 0.0034 | 0.674 ± 0.046 | 0.677 ± 0.01 | 0.73 ± 0.042 | 0.728 ± 0.02
18 | VLCFTSAYHRLV | 0.662 ± 0.017 | 0.739 ± 0.015 | 0.631 ± 0.0098 | 0.724 ± 0.014 | 0.206 ± 0.014 | 0.262 ± 0.019 | 0.5171 ± 0.0028 | 0.425 ± 0.049
19 | FYPFHVFCLLIF | 0.18 ± 0.028 | 0.177 ± 0.037 | 0.254 ± 0.017 | 0.361 ± 0.012 | 0.18 ± 0.023 | 0.162 ± 0.028 | 0.228 ± 0.0053 | 0.243 ± 0.029
20 | VFSVSVLFLFFH | 0.286 ± 0.0084 | 0.392 ± 0.0056 | 0.282 ± 0.034 | 0.456 ± 0.015 | 0.251 ± 0.011 | 0.242 ± 0.038 | 0.381 ± 0.019 | 0.377 ± 0.032

Row | Sequence | protein stability index (Saccharomyces cerevisiae [1]; [3]) | protein stability index (Saccharomyces cerevisiae [1]; [4]) | protein stability index (Saccharomyces cerevisiae [1]; [5]) | protein stability index (Saccharomyces cerevisiae [1]; [6]) | protein stability index (Saccharomyces cerevisiae [1]; [7]) | protein stability index (Saccharomyces cerevisiae [1]; [8]) | protein stability index (Saccharomyces cerevisiae [1]; [9]) | protein stability index (Saccharomyces cerevisiae [2])
21 | IFSFRWVLPFWL | 0.611 ± 0.059 | 0.701 ± 0.008 | 0.6 ± 0.026 | 0.70093 ± 0.00061 | 0.2407 ± 0.00051 | 0.256 ± 0.04 | 0.424 ± 0.0043 | 0.365 ± 0.098
22 | SWFNLLSILPRD | 0.699 ± 0.022 | 0.7053 ± 0.0039 | 0.7 ± 0.088 | 0.784 ± 0.022 | 0.714 ± 0.029 | 0.683 ± 0.019 | 0.736 ± 0.045 | 0.7305 ± 0.0018
23 | YMVSLSFTLVRS | 0.382 ± 0.038 | 0.454 ± 0.054 | 0.32 ± 0.022 | 0.474 ± 0.033 | 0.297 ± 0.024 | 0.333 ± 0.013 | 0.4552 ± 0.0036 | 0.481 ± 0.041
24 | GFFLCTCIRFWV | 0.452 ± 0.018 | 0.518 ± 0.034 | 0.386 ± 0.027 | 0.544 ± 0.01 | 0.2478 ± 0.0011 | 0.254 ± 0.028 | 0.421 ± 0.018 | 0.316 ± 0.016
25 | GGSIKRFVILVL | 0.416 ± 0.027 | 0.489 ± 0.0076 | 0.3 ± 0.044 | 0.525 ± 0.017 | 0.259 ± 0.006 | 0.304 ± 0.024 | 0.482 ± 0.027 | 0.406 ± 0.022
26 | IIVLNIGSVIFC | 0.456 ± 0.063 | 0.5884 ± 0.002 | 0.397 ± 0.018 | 0.5716 ± 0.0053 | 0.387 ± 0.0076 | 0.4057 ± 0.0017 | 0.549 ± 0.028 | 0.4951 ± 0.0022
27 | GSVGFICCVVVV | 0.29 ± 0.022 | 0.4314 ± 0.0042 | 0.332 ± 0.03 | 0.515 ± 0.0078 | 0.268 ± 0.017 | 0.298 ± 0.031 | 0.4546 ± 0.0022 | 0.412 ± 0.0011
28 | VFFVTSCWVFRG | 0.416 ± 0.018 | 0.574 ± 0.019 | 0.432 ± 0.022 | 0.64 ± 0.022 | 0.0921 ± 0.02 | 0.109 ± 0.028 | 0.208 ± 0.029 | 0.1794 ± 0.0015
29 | CRLFFVFVFFWW | 0.22 ± 0.04 | 0.179 ± 0.024 | 0.253 ± 0.03 | 0.322 ± 0.0059 | 0.311 ± 0.01 | 0.249 ± 0.022 | 0.274 ± 0.023 | 0.253 ± 0.095
30 | AWVEVYVISIGV | 0.192 ± 0.024 | 0.257 ± 0.0074 | 0.161 ± 0.022 | 0.324 ± 0.012 | 0.132 ± 0.0032 | 0.153 ± 0.011 | 0.2966 ± 0.0016 | 0.19 ± 0.032
31 | VLLCFFLGIVGF | 0.36 ± 0.045 | 0.487 ± 0.035 | 0.322 ± 0.024 | 0.488 ± 0.011 | 0.296 ± 0.0087 | 0.299 ± 0.012 | 0.489 ± 0.027 | 0.396 ± 0.045
32 | FFCLFCLSCWVL | 0.403 ± 0.023 | 0.422 ± 0.02 | 0.331 ± 0.015 | 0.444 ± 0.0054 | 0.323 ± 0.011 | 0.312 ± 0.04 | 0.3863 ± 0.0017 | 0.436 ± 0.054
33 | ERRWVLVAWRFK | 0.555 ± 0.026 | 0.616 ± 0.013 | 0.442 ± 0.031 | 0.619 ± 0.032 | 0.416 ± 0.0077 | 0.442 ± 0.03 | 0.6 ± 0.017 | 0.494 ± 0.02
34 | CVLLVFLHLCLA | 0.292 ± 0.0051 | 0.392 ± 0.022 | 0.283 ± 0.027 | 0.4448 ± 0.0025 | 0.256 ± 0.014 | 0.263 ± 0.049 | 0.402 ± 0.0075 | 0.381 ± 0.0019
35 | GREGETGSKAGR | 0.675 ± 0.008 | 0.708 ± 0.013 | 0.64 ± 0.024 | 0.7282 ± 0.003 | 0.64 ± 0.027 | 0.669 ± 0.021 | 0.717 ± 0.015 | 0.552 ± 0.17
36 | LTACRYVCFLLF | 0.575 ± 0.019 | 0.644 ± 0.018 | 0.561 ± 0.017 | 0.676 ± 0.037 | 0.239 ± 0.0088 | 0.261 ± 0.032 | 0.424 ± 0.012 | 0.261 ± 0.041
37 | SCFRFFFLFLFF | 0.192 ± 0.011 | 0.197 ± 0.0042 | 0.282 ± 0.024 | 0.361 ± 0.016 | 0.4322 ± 0.00071 | 0.238 ± 0.043 | 0.312 ± 0.0097 | 0.322 ± 0.052
38 | GFLRTVHFLLLG | 0.634 ± 0.1 | 0.675 ± 0.0077 | 0.575 ± 0.012 | 0.721 ± 0.037 | 0.225 ± 0.0044 | 0.251 ± 0.035 | 0.4702 ± 0.0038 | 0.354 ± 0.054
39 | VLVVRVLLSDLV | 0.178 ± 0.02 | 0.255 ± 0.021 | 0.18 ± 0.028 | 0.36571 ± 8.9e-05 | 0.157 ± 0.012 | 0.17 ± 0.012 | 0.338 ± 0.01 | 0.262 ± 0.0089
